Measured values: paper PMC8461249 (2021)

T1: TβRII-SE/Fc (TβRII-Soluble Endogenous fused to the human IgG1 Fc domain) (human)
T1 chain: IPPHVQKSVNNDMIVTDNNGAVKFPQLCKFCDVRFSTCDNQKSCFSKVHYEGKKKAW

B1: TGF-β3 (ligand)
chain: ALDTNYCFRNLEENCCVRPLYIDFRQDLGWKWVHEPKGYYANFCSGPCPYLRSADTTHSTVLGLYNTLNPEASASPCCVPQDLEPLTILYYVGRTPKVEQLSNMVVKSCKCS
B2: TGF-β2 (ligand)
chain: ALDAAYCFRNVQDNCCLRPLYIDFKRDLGWKWIHEPKGYNANFCAGACPYLWSSDTQHSRVLSLYNTINPEASASPCCVSQDLEPLTILYYIGKTPKIEQLSNMIVKSCKCS

What was measured:
Assay in all cases: SPR
1D11 = molecular target: 1D11
[1] = molecular target: T1, TβRII-SE/Fc (TβRII-Soluble Endogenous …)
[2] = molecular target: T2, TβRII-Fc (TβRII extracellular domain fused to human IgG1 Fc) (human, UniProt P37173-1 23-166)
[3] = molecular target: T1, TβRII-SE/Fc (TβRII-Soluble Endogenous …)
[4] = molecular target: T2, TβRII-Fc (TβRII extracellular domain …); remark: listed apart in the source

T2 sequence (P37173 23-166): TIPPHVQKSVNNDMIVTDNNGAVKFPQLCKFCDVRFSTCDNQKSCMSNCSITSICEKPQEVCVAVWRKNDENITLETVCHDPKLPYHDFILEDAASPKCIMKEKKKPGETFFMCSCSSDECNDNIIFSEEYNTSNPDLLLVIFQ

Row | Binder | Kd (1D11) | koff (1D11) | Kd [1] | Kd [2] | koff [3] | koff [4]
1 | B1 | 68 pM | 0.00012 s⁻¹ | 93 pM | 137 pM | 0.00018 s⁻¹ | 0.00116 s⁻¹
2 | B2 | 330 pM | 0.0015 s⁻¹ | 674 pM | 9500 pM | 0.00067 s⁻¹ | 0.0197 s⁻¹
